Data as given in patent publication US20260055186A1 (REPERTOIRE IMMUNE MEDICINES, published 2026).
Read-outs that look alike come from different tables or passages of the source. One block for each binder: values may come before it.

Assays:
[1] = molecular target: T1, human CD8 on human T cells (human, UniProt P01732 22-235); assay: cell-based or functional assay
[2] = molecular target: T1, human CD8 on human T cells; assay: flow cytometry, CD8+ T cells in human PBMCs, 1 h, PE anti-IL12
Description: Fusion proteins 02A01-IgG-IL12 (LC) and 03A01-IgG-IL12 (LC) were evaluated for their ability to specifically target IL12 to CD8⁺ T cells. […] The cells were incubated with media lacking a fusion protein as a negative control. Following 1 hour of incubation with the IL12 fusion constructs, the cells were washed once with complete RPMI medium and prepared for flow cytometry analysis. Cells were washed once with phosphate-buffered saline (PBS) containing 1% bovine serum albumin (PBS/BSA) and then stained with a 1:100 dilution of PE-conjugated anti-IL12 antibody (Clone No. C11.5; BioLegend Cat. No. 501807) in PBS/BSA. Following a 20 minute incubation at room temperature, the cells were washed once with PBS/BSA and then resuspended in PBS/BSA for analysis on a FACSCelesta using Diva software (BD Biosciences). Binding activity was quantified and represented as the mean fluorescent intensity values of IL-12 on either CD8⁺ T cells or NK cells. […] At a saturating dose, there was a 4- to 5-fold more IL-12 bound to CD8⁺ T cells than was bound to NK cells.

[3] = molecular target: T1, human CD8 on human T cells; assay: flow cytometry on human CD8+ T cells, titration
Description: (§1) The 16 above-referenced humanized 03A01-derived anti-CD8 antibodies were screened for their ability to bind human CD8 by evaluating binding to CD8⁺ T cells. The non-humanized parent (“03-Parent”) and the non-humanized parent comprising a heavy chain D64E liability mutation (“03-Parent-VH-D64E”) were used as controls. […] Cells were washed with 1×phosphate buffered saline (PBS) containing 1 mg/mL bovine serum albumin (PBS/BSA) and then stained with a 1:100 dilution of DyLight650-conjugated anti-human IgG H+L polyclonal antibody (ThermoFisher cat. no. Sa5-10129) in PBS/BSA. Following a 20-30 min incubation at 4° C., the cells were washed once with PBS/BSA, and then resuspended in PBS/BSA for analysis on a FACSCelesta using Diva software (BD Biosciences). The resulting data were analyzed using FlowJo. Data were quantified and reported as Max fluorescence intensity (MFI) of human IgG-Fc. […] Complete replacement of the LCDR1 (antibodies comprising VK4) eliminated binding to the CD8⁺ T cells.
(§2) The binding affinities of five of the above-referenced humanized anti-CD8 antibodies to human CD8 were determined by evaluating binding to CD8 human T cells using the method described above. Binding to human CD8+ T cells was tested at 7 serial 5-fold dilutions of each humanized 03A01 variant (from 50 nM to 3.2 pM). The resulting data were analyzed using FlowJo.

[4] = molecular target: T1, human CD8 on human T cells; assay: flow cytometry on human CD3+ T cells, apparent KD, 4PL fit
Description: (§3) The amino acid sequences of the resulting murine anti-CD8 antibodies 02A01, 03A01, 04D08, 05F10, and 11F05 are provided in Tables 1-3 herein above. These antibodies were recombinantly produced. Their binding affinity to CD8 expressed on the cell surface was measured by flow cytometry, and their respective binding affinities are reported in Table 8 and Table 9. Briefly, human or cynomolgus monkey CD3⁺ T cells were incubated with […] of anti-CD8 antibodies (from 250 nM to […]) for 30 minutes. Following the incubation, unbound antibodies were washed away, and the bound antibodies were detected with a AlexaFluor-647-labeled anti-human Fc detection antibody. The median fluorescence intensity of AlexaFluor-647 on the live cells was used to evaluate anti-CD8 antibody levels on the cell surface. Binding affinity (KD) values for anti-CD8 antibody T cell binding were determined with GraphPad Prism 7.0 using 4-Parameter logistic regression.

[5] = molecular target: T1, human CD8 on human T cells; assay: flow cytometry on human CD8+ T cells, titration, apparent KD
Description: as §1, §2

[6] = molecular target: T2, cynomolgus monkey CD8 on cynomolgus cells (cynomolgus monkey); assay: flow cytometry on cynomolgus CD3+ T cells, apparent KD, 4PL fit
T2 construct: whole, on cells; also called cynomolgus CD8
Description: as §3

[7] = molecular target: T1, human CD8 on human T cells; assay: flow cytometry on human CD8+ T cells, titration, apparent KD; remark: listed apart in the source
Description: (§4) The 24 humanized 02A01-derived anti-CD8 antibodies (excluding 02A01-VK3(D30E/N35Q)) were screened for their ability to bind human CD8 by evaluating binding to CD8+ T cells. The non-humanized parent (“02-Parent”) and the non-humanized parent comprising a heavy chain M39L liability mutation (“02-Parent-VH-M39L”) were used as controls. […] Cells were washed with 1×phosphate buffered saline (PBS) containing 1 mg/mL bovine serum albumin (PBS/BSA) and then stained with a 1:100 dilution of DyLight650-conjugated anti-human IgG H+L polyclonal antibody (ThermoFisher cat. no. Sa5-10129) in PBS/BSA. Following a 20-30 min incubation at 4° C., the cells were washed once with PBS/BSA, and then resuspended in PBS/BSA for analysis on a FACSCelesta using Diva software (BD Biosciences). The resulting data were analyzed using FlowJo. Data were quantified and reported as Max fluorescence intensity (MFI) of human IgG-Fc. […] Complete replacement of the HCDR1 (antibodies comprising VH5) eliminated binding to the CD8+ T cells.
(§5) Binding to human CD8+ T cells was tested at 7 serial 5-fold dilutions of each tested humanized 02A01 variant (from 50 nM to 3.2 pM). The resulting data were analyzed using FlowJo.

[8] = molecular target: T1, human CD8 on human T cells; assay: flow cytometry on human CD8+ T cells, titration; remark: listed apart in the source
Description: as §4, §5

human CD8α/β [9] = molecular target: T3, human CD8α/β (human, UniProt P01732 22-182; P10966 22-170); assay: SPR, antibody captured on Protein A chip, hCD8α/β as analyte
T3 construct: Soluble heterodimer used in SPR and in the Carterra binning (there printed only as CD8α/β); also called hCD8α/β
Description: (§6) The binding affinities of six of the humanized anti-CD8 antibodies to human CD8 were also determined by surface plasmon resonance (SPR). Briefly, equilibrium dissociation constants for human CD8α/β were determined using a real-time SPR biosensor using a Protein A Sensor Chip (Cytiva) to capture purified anti-CD8 monoclonal antibodies at a concentration of 0.5 nM. SPR binding studies were performed in a buffer composed of Phosphate buffered saline, pH 7.2 containing 0.05% v/v Surfactant P20 (PBS-P20 buffer). Different concentrations of hCD8α/β prepared in PBS-P20 running buffer (ranging from 500 nM to 7.8 nM, 2-fold dilutions) were injected over the anti-CD8 monoclonal antibody captured surface. Association of hCD8α/β to the captured monoclonal antibody was monitored for 400 seconds and the dissociation of hCD8α/β in PBS-P20 running buffer was monitored for 600 sec. All of the binding kinetics experiments were performed at 25° C. Kinetic association (kₐ) and dissociation (kd) rate constants were determined by fitting the real-time sensorgrams to a 1:1 binding model using Scrubber 2.0c curve fitting software.

human CD8α/β [10] = molecular target: T3, human CD8α/β; assay: SPR, antibody captured on Protein A chip, hCD8α/β as analyte, 1:1 fit
Description: as §6

[11] = molecular target: T1, human CD8 on human T cells; assay: cell-based or functional assay; remark: listed apart in the source
[12] = molecular target: T1, human CD8 on human T cells; assay: flow cytometry, human PBMC co-cultured 1 h with the fusion protein, anti-IL2 staining gated on CD8 T cells (IL2 loading, MFI)
Description: (§7) Anti-human CD8-human IL2 molecules were evaluated for their ability to specifically bind and load IL2 on CD8 T cells. Briefly, 1×10⁵ human PBMC were co-cultured with indicated CD8-IL2 (human FC receptor) molecules from one of the concentrations ranging from 0.05 pM to 0.4 nM. Following one hour incubation with molecules, PBMC were washed twice with RPMI complete medium and washed once with PBS. The washed cells were stained with anti-IL2 (MQ1-17H12), anti-human kappa (MHK-49) and lineage surface markers CD3(UCHT1), CD4(SK3) and NK(HCD56) for 20 minutes, after which the cells were washed and analyzed using a flow cytometer. The binding affinity was quantified and represented as mean fluorescence intensity (MFI).

[13] = molecular target: T1, human CD8 on human T cells; assay: flow cytometry, human PBMC co-cultured 1 h with the fusion protein, anti-human kappa staining on CD8 T cells (CD8 antibody binding, MFI)
Description: as §7

[14] = molecular target: T1, human CD8 on human T cells; assay: cell-based or functional assay; remark: listed apart in the source

T1 sequence (P01732 22-235): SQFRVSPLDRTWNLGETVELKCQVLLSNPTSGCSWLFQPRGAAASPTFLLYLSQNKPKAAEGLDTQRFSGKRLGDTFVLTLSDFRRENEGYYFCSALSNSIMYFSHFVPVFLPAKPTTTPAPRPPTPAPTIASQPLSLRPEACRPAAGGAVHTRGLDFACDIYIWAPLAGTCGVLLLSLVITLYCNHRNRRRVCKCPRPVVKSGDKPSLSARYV
T3 sequence (P01732 22-182, chain 1 of 2): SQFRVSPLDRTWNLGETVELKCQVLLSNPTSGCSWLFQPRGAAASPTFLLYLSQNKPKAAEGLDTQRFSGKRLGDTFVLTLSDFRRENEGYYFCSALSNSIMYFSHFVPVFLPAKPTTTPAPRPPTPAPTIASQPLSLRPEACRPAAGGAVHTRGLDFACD
T3 sequence (P10966 22-170, chain 2 of 2): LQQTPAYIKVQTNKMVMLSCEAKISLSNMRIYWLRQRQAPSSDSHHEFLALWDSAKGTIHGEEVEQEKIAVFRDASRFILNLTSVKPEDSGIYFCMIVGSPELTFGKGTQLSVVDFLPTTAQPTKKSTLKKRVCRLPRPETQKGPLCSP

EC50 of Ki67 expression (proliferation) in human CD8+ T cells [11]: 0.0689 nM
EC50 (read off the curve) [12]: ~0.03 nM
EC50 (read off the curve) [13]: ~0.03 nM
EC50 of pSTAT5 activation in human CD8+ T cells [14]: 0.448 pM
B5: hCD8 IgG IL2 1× (HC) (other)
VH: EVQLVQSGAEVKKPGATVKISCKASGYTFTDFTMHWVQQAPGKGLEWIGLVNPNNGGNIYAEKFQGRVTLTVDTSTSTAYMELSSLRSEDTAVYYCGRVPLYTSHGMDYWGQGTLVTVSS
VL: EIVLTQSPATLSLSPGERATISCRASESVDSYDINSMHWYQQKPGQAPRLLIYRASHLQSGIPARFSGSGSRTDFTLTISSLEPEDFATYYCQQSNEDPLTFGQGTKLEIK
notes: read as humanized 02A01-VH6-VK3; One wild type human IL-2 on one heavy chain C-terminus; also called hCD8 IgG-IL2(HC)

EC50 of Ki67 expression (proliferation) in human CD8+ T cells [11]: 0.0551 nM
EC50 (read off the curve) [12]: ~0.03 nM
EC50 (read off the curve) [13]: ~0.03 nM
EC50 of pSTAT5 activation in human CD8+ T cells [14]: 0.246 pM
B6: hCD8 IgG IL2 (LC) (other)
VH: B5 VH
VL: B5 VL
notes: read as humanized 02A01-VH6-VK3; Wild type human IL-2 on each light chain C-terminus

More lines, now with the values behind:

B1: 03A01-IgG-IL12 (LC) (other)
VH: DVQFQESGPGLVKPSQSLSLTCTVTGYSITSDFAWNWIRQFPGNELEWMGYISYSGDTNYNPSLRSRISITRDTSKNQFFLQLDSVTTEDTATYYCTIRGYYTDSAFVFWGQGTLVTVSA
VL: DIQMTQSSSYLSVSLGGRVTITCKASDHINNWLAWYQQKPGNAPRLLISGATSLETGVPSRFTGSGSGLDYTLSITSLQTEDVATYYCQQYWNSPFTFGSGTKLEIK
notes: 03A01 IgG with human IL-12p70 linked to the C-terminus of each light chain; human IgG1 Fc with L234A, L235A, P329G, N297A; also called 03A01 IgG IL12p70 (LC)
EC50 of pSTAT4 signaling in human CD8+ T cells [1]: 14.7 pM
EC50 (read off the curve) [2]: ~0.2 nM

B2: Murine 03A01 (antibody, V domains shown)
VH: B1 VH
VL: B1 VL
notes: Recombinantly produced IgG; also called 03-parental; 03-Parent
Fold Change to Parental Apparent KD [3]: 1 fold
Kd [4]: 0.86 nM
Kd [5]: 0.926 nM
Kd [6]: 1.77 nM

B3: 02A01-IgG-IL12 (LC) (other)
VH: EVQLQQSGPELVKPGASLKISCKASGYTFTDFTMHWVKQSHGKSLEWIGLVNPNNGGNIYNQNFKGKATLTVDTSSSTAYMELRSLTSEDSSVYYCGRVPLYTSHGMDYWGQGTSVTVSS
VL: DIVLTQSPAFLAVSLGQRATISCRASESVDSYDINSMHWYQQKPGQPPKLLIYRASHLQSGIPARFSGSGSRTDFTLTINFVEADDVATYYCQQSNEDPLTFGAGTKLELK
notes: 02A01 IgG with human IL-12p70 linked to the C-terminus of each light chain; human IgG1 Fc with L234A, L235A, P329G, N297A; also called 02A01 IgG IL12p70 (LC)
EC50 of pSTAT4 signaling in human CD8+ T cells [1]: 2.72 pM
EC50 (read off the curve) [2]: ~0.01 nM

B4: Murine 02A01 (antibody, V domains shown)
VH: B3 VH
VL: B3 VL
notes: Recombinantly produced IgG; also called 02-parental; 02-Parent
Kd [7]: 0.057 nM
Kd [4]: 0.047 nM
Fold Change to Parental Apparent KD [8]: 1 fold
Maximum CD8+ T cell Binding (MFI) [8]: 2900 MFI
Fold Change to Parental Calculated KD (human CD8α/β [9]): 1 fold
Kd [6]: 0.075 nM
Kd (human CD8α/β [10]): 9.29 nM
